[ ]: non-standard residue; d: D form. Gu = N-terminal tetramethylguanidine; Orn = NCCC[C@H](N)C(=O)O
What was measured:
Test in all cases: fluorescence polarisation; cf-labeled peptide (10 µL of 40 nmol/L) added to a 2-fold dilution series (22 steps, 10 µL) of pure 70S ribosome, 50S or 30S subunit; ribosome preparation buffer (20 mmol/L HEPES-KOH, 6 mmol/L MgCl2, 30 mmol/L NH4Cl, pH 7.6); 28 ± 1 °C, 90 min; apparent Kd (average over at least two or three sites)
Conditions in all cases: both partners purified
[1] = biological target: purified E. coli 30S ribosomal subunit (E. coli (endogenous in MRE600))
[2] = biological target: purified E. coli 70S ribosome (E. coli (endogenous in BW25113), UniProt P60723 1-201; P61175 1-110; P0ADZ0 1-100; P0A7M6 1-63; P0A7J3 1-165)
[3] = biological target: purified E. coli 50S ribosomal subunit (E. coli (endogenous in MRE600), UniProt P60723 1-201; P61175 1-110; P0ADZ0 1-100; P0A7M6 1-63; P0A7J3 1-165)

Binder | fold weaker binding than to the 50S subunit [1] [fold] | Kd [2] [µM] | Kd [3] [nM]
Gu-[Orn](5(6)‑carboxyfluorescein)NNRPVYIPRPRPPHPRL-OH [cf-Api137 (5(6)-carboxyfluorescein-labeled Api137, Gu-ONNRPVYIPRPRPPHPRL-OH)] | ~10 | 4.73 | 2200
Gu-[Orn](5(6)‑carboxyfluorescein)NNRPVYIPRPRPPHPRL-NH2 [cf-Api88 (5(6)-carboxyfluorescein-labeled Api88, Gu-ONNRPVYIPRPRPPHPRL-NH2)] | ~23 | 1.8 | 600
